According to patent US20170152307A1 (Janssen / Centocor, published 2017):
Like-named read-outs stand apart in the source and are kept apart here. Values belong to the binder of their own block, whether it stands above or below them. Where no end group is shown, it is not given here. The star is where a group is joined. Biotin = O=C1N[C@H]2[C@H](CS[C@H]2CCCCC(=O)*)N1

Tests used:
ptau 299-323 p305, 316 = ptau 299-323 p305, 316 (human); test: peptide ELISA, biotinylated peptide on streptavidin plate, IgG titrated (Example 14)
Chain of ptau 299-323 p305, 316 (human) (main, as listed by the source): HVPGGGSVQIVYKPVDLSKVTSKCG
Method: (§1) Plates were washed five times with TBS-T followed by the addition of secondary antibody [goat Anti-Human IgG F(ab′)₂ (Jackson Labs) at 1:2000 dilution], diluted in TBS plus 0.25% BSA, and incubated at RT for 1 hour. Following incubation, plates were washed four times in TBS-T and developed with SureBlue Reserve TMB Microwell Peroxidase Substrate (KPL) for approximately 90 seconds. The reaction was immediately halted by the addition of TMB Stop Solution (KPL) and the absorbance at 450 nm was measured using an ELISA plate reader. Each experiment was conducted in triplicate across three different days. Reactivity was considered positive when values were equal to or higher than an OD of 0.4 in the ELISA assay. […] (−) for average of two O.D. 450 nm readings <0.3; (−/+) for >0.5 and <1.0; (+) for >1.0 and <1.5; (++) for >1.5. […] (−) for average of three O.D. 450 nm readings <0.3; (−/+) for >0.5 and <1.0; (+) for >1.0 and <1.5; (++) for >1.5.
(§2) (−) for average of two O.D. 450 nm readings <0.3; (−/+) for >0.5 and <1.0; (+) for >1.0 and <1.5; (++) for >1.5.

[1] = target: ptau 406-429 (pS416, pS422) (human); test: peptide ELISA, 1 ug/mL IgG
ptau 404-429 = ptau 404-429 (human); test: peptide ELISA, 1 ug/mL IgG
ptau 412-429 = ptau 412-429 (human); test: peptide ELISA, 1 ug/mL IgG
ptau 412-434 = target: T1, ptau 412-434 (human); test: peptide ELISA, 1 ug/mL IgG
T1 construct: also called ptau 412-434 p422, 427

ptau 406-423 = ptau 406-423 (human); test: peptide ELISA
Method: (§3) Briefly, 96-well streptavidin-binding plates (Thermo-Fisher) were coated with 2 μg/ml of tau peptides diluted in TBS and incubated overnight at 4° C. […] Plates were washed five times with TBS-T followed by the addition of secondary antibody [goat Anti-Human IgG F(ab′)₂ (Jackson Labs) at 1:2000 dilution], diluted in TBS plus 0.25% BSA, and incubated at RT for 1 hour. Following incubation, plates were washed four times in TBS-T and developed with SureBlue Reserve TMB Microwell Peroxidase Substrate (KPL) for approximately 90 seconds. The reaction was immediately halted by the addition of TMB Stop Solution (KPL) and the absorbance at 450 nm was measured using an ELISA plate reader. Each experiment was conducted in triplicate across three different days. Reactivity was considered positive when values were equal to or higher than an OD of 0.4 in the ELISA assay. […] (−) for average of two O.D. 450 nm readings <0.3; (−/+) for >0.5 and <1.0; (+) for >1.0 and <1.5; (++) for >1.5. […] (−) for average of three O.D. 450 nm readings <0.3; (−/+) for >0.5 and <1.0; (+) for >1.0 and <1.5; (++) for >1.5.

ptau 404-421 = target: T2, ptau 404-421 (human); test: peptide ELISA
T2 construct: also called ptau 404-421 p414
Method: as §3

[2] = target: ptau 225-245 (pS235, pS238) (human); test: peptide ELISA, 1 ug/mL IgG
Method: (§4) Plates were coated in TBS overnight at 4° C. The following day, plates were washed five times with TB S/0.05% TWEEN® (TBS-T) and blocked with 150 IA of TBS-T plus 2.5% BSA (blocking buffer) for 2 hour. Tau peptides were captured on streptavidin-coated plates (Pierce) at a concentration of 0.43 μM in 100 μl of TBS. Tau peptides used to set up ELISA assays were the same used as baits in corresponding sorting experiment. Tau peptide-coated plates were then incubated at RT for 1.5 hours. All plates were then washed five times with TBS/0.05% TWEEN® and blocked with 150 μl and 300 μl (tau peptide plates only) of blocking buffer and incubated at RT for 2 hours. […] Primary antibodies were incubated for 2 hours at RT and washed five times in TBS-T. Finally, goat-anti human IgG Fab or goat anti-mouse HRP (Jackson Labs) was used at 1:2000 and 1:4000, respectively, and incubated for 1 hour at RT. Plates were washed five times in TBS-T and developed with SureBlue Reserve TMB Microwell Peroxidase Substrate (KPL). The reaction was halted by the addition of 50 μl and 100 μl (peptide plates) of TMB Stop Solution (KPL) and the absorbance at 450 nm was measured using an ELISA plate reader. Supernatants with the aforementioned binding activities were subsequently reconfirmed in an independent ELISA experiment.

[3] = target: ptau 221-245 (pT231, pS238) (human); test: peptide ELISA, 1 ug/mL IgG
Method: as §4

ptau 228-245 (pS238) = ptau 228-245 (pS238) (human); test: peptide ELISA, 1 ug/mL IgG
Method: as §4

[4] = target: ptau 406-429 (pS416, pS422) (human); test: peptide ELISA, biotinylated peptide on streptavidin plate, IgG titrated (Example 6)
Method: as §4

tau 389-441 = target: T3, tau 389-441 (human, N-terminal biotin, not carried by the letters); test: as above
T3 peptide: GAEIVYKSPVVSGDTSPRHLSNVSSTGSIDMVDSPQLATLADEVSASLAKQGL
Method: as §4

[5] = target: ptau 406-429 (pS416, pS422) (human); test: peptide ELISA, 1 ug/mL IgG; remark: listed apart in the source
Method: as §4

tau 405-423 = target: T4, tau 405-423 (human); test: peptide ELISA
T4 peptide: Biotin-PRHLSNVSSTGSIDMVDSP
Method: as §3

tau 409-428 = target: T5, tau 409-428 (human, N-terminal biotin, not carried by the letters); test: peptide ELISA
T5 peptide: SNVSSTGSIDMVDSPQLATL
Method: as §3

tau 52-71 (A69) = target: T6, tau 52-71 (A69) (human, N-terminal biotin on the synthetic peptide; not carried in the letters); test: alanine-scan peptide ELISA, 1 ug/mL IgG
T6 construct: T69A
T6 peptide: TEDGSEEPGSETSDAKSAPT
Method: as §1
(§5) To further characterize the specificity and amino acid contribution to binding of each of the recover mAbs, their reactivity to tau peptides with each position replaced with Alanine was tested by ELISA. […] (−) for average of two O.D. 450 nm readings <0.3; (−/+) for >0.5 and <1.0; (+) for >1.0 and <1.5; (++) for >1.5.

tau 52-71 (A54) = target: T7, tau 52-71 (A54) (human, N-terminal biotin, not carried by the letters); test: alanine-scan peptide ELISA, 1 ug/mL IgG
T7 construct: D54A
T7 peptide: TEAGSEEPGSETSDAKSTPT
Method: as §1, §5

tau 52-71 (A56) = target: T8, tau 52-71 (A56) (human, N-terminal biotin; not carried in the letters); test: alanine-scan peptide ELISA, 1 ug/mL IgG
T8 construct: S56A
T8 peptide: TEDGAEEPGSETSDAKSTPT
Method: as §1, §5

tau 52-71 (A58) = target: T9, tau 52-71 (A58) (human, N-terminal biotin; not carried in the letters); test: alanine-scan peptide ELISA, 1 ug/mL IgG
T9 construct: E58A
T9 peptide: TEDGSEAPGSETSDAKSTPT
Method: as §1, §5

tau 52-71 (A60) = target: T10, tau 52-71 (A60) (human, N-terminal biotin; not carried in the letters); test: alanine-scan peptide ELISA, 1 ug/mL IgG
T10 construct: G60A
T10 peptide: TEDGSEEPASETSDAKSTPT
Method: as §1, §5

tau 52-71 (A52) = target: T11, tau 52-71 (A52) (human, N-terminal biotin, not carried by the letters); test: alanine-scan peptide ELISA, 1 ug/mL IgG
T11 construct: T52A
T11 peptide: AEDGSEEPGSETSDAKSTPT
Method: as §1, §5

tau 52-71 (A59) = target: T12, tau 52-71 (A59) (human, N-terminal biotin; not carried in the letters); test: alanine-scan peptide ELISA, 1 ug/mL IgG
T12 construct: P59A
T12 peptide: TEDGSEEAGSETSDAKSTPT
Method: as §1, §5

tau 52-71 (A71) = target: T13, tau 52-71 (A71) (human, N-terminal biotin on the synthetic peptide; not carried in the letters); test: alanine-scan peptide ELISA, 1 ug/mL IgG
T13 construct: T71A
T13 peptide: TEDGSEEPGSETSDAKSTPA
Method: as §1, §5

tau 52-71 (A57) = target: T14, tau 52-71 (A57) (human, N-terminal biotin; not carried in the letters); test: alanine-scan peptide ELISA, 1 ug/mL IgG
T14 construct: E57A
T14 peptide: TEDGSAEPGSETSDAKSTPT
Method: as §1, §5

tau 52-71 (A70) = target: T15, tau 52-71 (A70) (human, N-terminal biotin on the synthetic peptide; not carried in the letters); test: alanine-scan peptide ELISA, 1 ug/mL IgG
T15 construct: P70A
T15 peptide: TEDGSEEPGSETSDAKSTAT
Method: as §1, §5

tau 52-71 (A61) = target: T16, tau 52-71 (A61) (human, N-terminal biotin; not carried in the letters); test: alanine-scan peptide ELISA, 1 ug/mL IgG
T16 construct: S61A
T16 peptide: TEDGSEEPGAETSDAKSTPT
Method: as §1, §5

tau 52-71 (A63) = target: T17, tau 52-71 (A63) (human, N-terminal biotin on the synthetic peptide; not carried in the letters); test: alanine-scan peptide ELISA, 1 ug/mL IgG
T17 construct: T63A
T17 peptide: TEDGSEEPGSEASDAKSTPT
Method: as §1, §5

tau 52-71 (A55) = target: T18, tau 52-71 (A55) (human, N-terminal biotin (all tau peptides were synthesized with an amino-terminal biotin group); not carried in the letters); test: alanine-scan peptide ELISA, 1 ug/mL IgG
T18 construct: G55A
T18 peptide: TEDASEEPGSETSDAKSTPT
Method: as §1, §5

tau 52-71 (A68) = target: T19, tau 52-71 (A68) (human, N-terminal biotin on the synthetic peptide; not carried in the letters); test: alanine-scan peptide ELISA, 1 ug/mL IgG
T19 construct: S68A
T19 peptide: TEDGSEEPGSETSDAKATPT
Method: as §1, §5

tau 52-71 (A64) = target: T20, tau 52-71 (A64) (human, N-terminal biotin on the synthetic peptide; not carried in the letters); test: alanine-scan peptide ELISA, 1 ug/mL IgG
T20 construct: S64A
T20 peptide: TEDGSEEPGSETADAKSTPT
Method: as §1, §5

tau 52-71 (A53) = target: T21, tau 52-71 (A53) (human, N-terminal biotin, not carried by the letters); test: alanine-scan peptide ELISA, 1 ug/mL IgG
T21 construct: E53A
T21 peptide: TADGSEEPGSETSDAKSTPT
Method: as §1, §5

ptau 48-71 (p64) = target: T22, ptau 48-71 (p64) (human); test: peptide ELISA, biotinylated peptide on streptavidin plate, IgG titrated (Example 14)
T22 construct: also called ptau 48-71 (Ser64)
T22 sequence (main, as listed by the source): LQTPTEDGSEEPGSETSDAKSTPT
Method: as §1, §2

tau 52-71 (A65) = target: T23, tau 52-71 (A65) (human, N-terminal biotin on the synthetic peptide; not carried in the letters); test: alanine-scan peptide ELISA
T23 construct: D65A
T23 peptide: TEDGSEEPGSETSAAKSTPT
Method: as §1, §5

tau 52-71 (A67) = target: T24, tau 52-71 (A67) (human, N-terminal biotin on the synthetic peptide; not carried in the letters); test: alanine-scan peptide ELISA
T24 construct: K67A
T24 peptide: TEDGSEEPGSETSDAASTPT
Method: as §1, §5

tau 52-71 (A62) = target: T25, tau 52-71 (A62) (human, N-terminal biotin; not carried in the letters); test: alanine-scan peptide ELISA
T25 construct: E62A
T25 peptide: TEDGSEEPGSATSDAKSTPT
Method: as §1, §5

tau 72-91 = target: T26, tau 72-91 (human, N-terminal biotin, not carried by the letters); test: peptide ELISA, biotinylated overlapping peptide on streptavidin plate, IgG titrated (Example 9)
T26 peptide: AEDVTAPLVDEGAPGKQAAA
Method: as §3

tau 82-103 = tau 82-103 (human, N-terminal biotin, not carried by the letters); test: as above
Chain of tau 82-103 (human, N-terminal biotin, not carried by the letters) (peptide, as listed by the source limits assumed): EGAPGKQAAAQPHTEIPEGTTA
Method: as §3

tau 42-61 = target: T27, tau 42-61 (human, N-terminal biotin, not carried by the letters); test: as above
T27 peptide: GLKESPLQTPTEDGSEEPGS
Method: as §3

tau 62-81 = target: T28, tau 62-81 (human, N-terminal biotin, not carried by the letters); test: as above
T28 peptide: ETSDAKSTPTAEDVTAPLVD
Method: as §3

EC50 (read off the curve) (ptau 299-323 p305, 316): ~0.01 µg/mL | OD450 [1]: 0.5 to 1 od | OD450 (ptau 404-429): 0.5 to 1 od | OD450 (ptau 412-429): 0.5 to 1 od | OD450 (ptau 412-434): 0.5 to 1 od | OD450 (ptau 406-423): < 0.3 od | OD450 (ptau 404-421): < 0.3 od
B1: CBTAU-27.1 (antibody, human IgG1, V domains shown)
VH: QVQLVESGPEMRKPGESLKISCKTSGYIFSDYWTAWVRQLPGKGLQWMGIIYSGDSDTRYHPSVQGHVTMSTDSSLTTAYLQWSSLKASDTGIYYCARLDARVDAGWQLDSWGQGTLVTVSS
VL: DIQLTQSPDSLAVSLGERATINCKSSQSVFSRDNNKNYLAWYQHKSGQPPKLLFFWASSRESGVSDRFSGSGSGTDFTLTIDNLQAEDVALYYCQHYFNTPHNFGQGTKLEIK
notes: recombinant full-length human IgG1

OD450 [2]: > 1.5 od | OD450 [3]: > 1.5 od | OD450 (ptau 228-245 (pS238)): > 1.5 od
B2: CBTAU-24.1 (antibody, human IgG1, V domains shown)
VH: QVQLVQSGAEVKKPGASVKVSCTASGYTFTGYYLHWVRQAPGQGLEWMGWVNPRSGGTSYPPKFQGRVTMTRDTSINTAYMDLTWLTSDDTAVYYCAVGRIPDVTAFDIWGQGTPVTVSS
VL: DIQMTQSPDSLAVSLGERATINCKSSESLLYDSNNKNYLAWYQQKPGQPPKLLIYWASTRESGVPDRFSGSGSETDFTLTISSLQAEDVAVYHCQQYFSTPWTFGQGTKLEIK
notes: as for B1

EC50 (read off the curve) [4]: ~0.04 µg/mL | binding result (tau 389-441): no binding (tested: 5 µg/mL) | OD450 [5]: > 1.5 od
B3: CBTAU-22.1 (antibody, human IgG1, V domains shown)
VH: QVQLVQSGAEVKKPGAPVKVSCETSGYRFSDYNVHWVRQAPGQGPEWIGRISPNSGGTKYAQKFQGRVTMTRDMSMNTAYMELSGLRSDDTAVYYCVRGHCDGTTCSRAYWGQGTLVTVSS
VL: DVVMTQSPLSLPVTPGEPASISCRSSQSLLHRSGHKYLHWYLQRPGQSPQVLIYLGSNRASGVPDRFSGSGSGTDFTLKISRVEAEDVGLYYCMQTLQTPWTFGQGTKVEIK
notes: as for B1
binding result (tau 405-423): no binding (tested: OD450 <0.3 at 2 ug/mL) | binding result (tau 409-428): no binding (tested: OD450 <0.3 at 2 ug/mL)

binding result (tau 52-71 (A69)): binds | binding result (tau 52-71 (A54)): binds | binding result (tau 52-71 (A56)): binds | binding result (tau 52-71 (A58)): binds | binding result (tau 52-71 (A60)): binds | binding result (tau 52-71 (A52)): binds | binding result (tau 52-71 (A59)): binds | binding result (tau 52-71 (A71)): binds | binding result (tau 52-71 (A57)): binds | binding result (tau 52-71 (A70)): binds | binding result (tau 52-71 (A61)): binds | binding result (tau 52-71 (A63)): binds | binding result (tau 52-71 (A55)): binds | binding result (tau 52-71 (A68)): binds | binding result (tau 52-71 (A64)): binds | binding result (tau 52-71 (A53)): binds | EC50 (read off the curve) (ptau 48-71 (p64)): ~0.2 µg/mL | binding result (tau 72-91): no binding (tested: 5 µg/mL) | binding result (tau 82-103): no binding (tested: 5 µg/mL) | binding result (tau 42-61): no binding (tested: 5 µg/mL) | binding result (tau 62-81): no binding (tested: 5 µg/mL)
B4: CBTAU-28.1 (antibody, human IgG1, V domains shown)
VH: QVQLQQSGAEVKKPGESLKISCEASGYSFTNYWIGWVRQMPGKGLEWMGIIYPGDSDTRYSPPFQGQVTITADRSITTAYLEWSSLKASDTAMYYCARVGRPSKGGWFDPWGQGTLVTVSS
VL: DIQMTQSPDSLAVSLGERATINCESSQTLLYSSNEKNYLAWYQQKPGQPPKLLISWASTPESGVPDRFSGSGSGTSFTLTISSLQAEDVAVYYCQQYYNSPYTFGQGTRLEIK
notes: as for B1
binding result (tau 52-71 (A65)): no binding (tested: OD450 <0.3 at 1 ug/mL) | binding result (tau 52-71 (A67)): no binding (tested: OD450 <0.3 at 1 ug/mL) | binding result (tau 52-71 (A62)): no binding (tested: OD450 <0.3 at 1 ug/mL)
